Measured values published in article doi:10.1101/2021.10.29.466502 (bioRxiv, 2021).

T1: thrombopoietin receptor MPL on Ba/F3-HuMpl cells (human, UniProt P40238 26-635, N-glycans (consensus sites N117, N178, N298, N358))
T1 sequence: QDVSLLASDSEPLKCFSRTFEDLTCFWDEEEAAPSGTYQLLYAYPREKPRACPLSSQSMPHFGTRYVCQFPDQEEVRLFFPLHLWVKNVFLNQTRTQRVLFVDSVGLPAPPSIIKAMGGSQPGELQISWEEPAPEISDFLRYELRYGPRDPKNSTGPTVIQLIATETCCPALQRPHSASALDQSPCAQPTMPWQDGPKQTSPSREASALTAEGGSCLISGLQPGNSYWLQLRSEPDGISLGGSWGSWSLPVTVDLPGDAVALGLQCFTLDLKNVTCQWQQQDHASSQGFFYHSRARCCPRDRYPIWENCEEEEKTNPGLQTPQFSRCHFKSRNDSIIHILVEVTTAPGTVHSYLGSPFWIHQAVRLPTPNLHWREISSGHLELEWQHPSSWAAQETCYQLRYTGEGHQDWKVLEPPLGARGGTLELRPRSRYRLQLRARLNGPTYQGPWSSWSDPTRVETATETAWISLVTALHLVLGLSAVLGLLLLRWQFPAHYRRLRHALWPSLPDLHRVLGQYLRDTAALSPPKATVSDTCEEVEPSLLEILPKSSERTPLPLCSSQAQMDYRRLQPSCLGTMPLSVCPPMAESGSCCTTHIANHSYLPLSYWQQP

B1: N-terminal His-tagged recombinant ThC (rThC) (natural protein)
chain: TACTTGPQTISFPAGLIVSLNASVQSSRNESVEVKDSNGNTVSRGSGSSSSGGTFTVINMEPPTFISDGNDYTVELSPQATPGILQTESSRVDNGRLIWQNYAFGANDGGCIVGDRDFNDVFVLITGLVRG

How the values were obtained:
[1] = biological target: thrombopoietin receptor MPL on Ba/F3-HuMpl cells (human) (UniProt P40238)
[2] = biological target: T1, thrombopoietin receptor MPL on …; assay: cell-based or functional assay

Molecule	proliferation of Ba/F3-HuMpl cells, EC50 [1]	proliferation of Ba/F3-HuMpl cells, EC50 [2]
PA-IIL (from UniProt Q9HYN5 1-115) (natural protein)	17.5 µg/mL	–
B1	–	0.26 µg/mL
